B1: BMP4: Recombinant BMP4 protein obtained from Stemgent (protein, UniProt P12644 293-408, looked up)
Bone morphogenetic protein 4: SPKHHSQRARKKNKNCRRHSLYVDFSDVGWNDWIVAPPGYQAFYCHGDCPFPLADHLNSTNHAIVQTLVNSVNSSIPKACCVPTELSAISMLYLDEYDKVVLKNYQEMVVEGCGCR
B2: SFRP1: Recombinant human SFRP1 protein (R&D Systems), secreted decoy receptor binding canonical and non-canonical Wnt ligands (protein, UniProt Q8N474 32-314, looked up)
Secreted frizzled-related …: SEYDYVSFQSDIGPYQSGRFYTKPPQCVDIPADLRLCHNVGYKKMVLPNLLEHETMAEVKQQASSWVPLLNKNCHAGTQVFLCSLFAPVCLDRPIYPCRWLCEAVRDSCEPVMQFFGFYWPEMLKCDKFPEGDVCIAMTPPNATEASKPQGTTVCPPCDNELKSEAIIEHLCASEFALRMKIKEVKKENGDKKIVPKKKKPLKLGPIKKKDLKKLVLYLKNGADCPCHQLDNLSHHFLIMGRKVKSQYLLTAIHKWDKKNKEFKNFMKKMKNHECPTFQSVFK

What was measured:
MSP-RAS cells = assay: Tumorsphere assay, MSP-RAS cells; format: cell-based, human; details: for reduction of primary tumorsphere formation: SFRP1 1 μg/ml, BMP4 0.5 μg/ml daily during primary sphere formation; for reduction of secondary tumorsphere formation: treated during primary sphere formation only
Procedure: FIGS. 4A-4G. Autocrine Signaling controls tumorigenicity and metastasis of MSP-RAS cells. (FIG. 4A) Migration assay: RAS-transformed MSP (MSP-RAS) were seeded in Boyden Chamber migration assays and recombinant SFRP1 (1 μg/ml) and BMP4 protein (0.5 μg/ml) were added; *control vs. single treatment, p<1×10^−8, **single vs. double treatment with SFRP1 and BMP4 (S+B), p<1×10^−4, n=3. (FIG. 4B) Tumorsphere assay: SFRP1 (1 μg/ml) and BMP4 protein (0.5 μg/ml) were added daily during primary sphere formation (5 days), spheres were dispersed and seeded for secondary sphere formation in the absence of further treatment; #control primary vs. secondary sphere formation, p=0.001; *control vs. single treatment, p<1×10^−4, **single vs. double treatment with SFRP1 and BMP4 (S+B), p<0.01, n(tumorspheres)/1000 cells, n=6. (FIG. 4C) Flow cytometry: CD44 and CD24 cell-surface markers of dissociated primary tumorspheres as described in (B). (FIG. 4D) Orthotopic tumor formation after ex vivo treatment during tumorsphere formation: primary tumorspheres as generated in (B) were pooled, dissociated and 1.0×10^5 cells were implanted in the fat pads of mice; shown are tumor weight and incidence, *indicates absence of tumor, n=5 mice/group. (FIG. 4E) Lung metastasis: fluorescence microscopy images of the major left lung lobe showing GFP-expressing metastatic nodules and quantification of the number of lung surface metastases; *control vs. SFRP1 treatment, p<0.05, **SFRP1 vs. BMP4 or double treatment (S+B), p<0.05, n=5 mice/group. (FIG. 4F) Liver metastasis: fluorescence microscopy images of the liver surface showing GFP-expressing micro-metastatic nodules after implantation of cells as described in (D) and quantification: 5 fields of liver surface were counted per mouse, *control vs. single treatment, p<0.05, **single vs. double treatment (S+B), p<0.05, n=5 mice/group. (FIG. 4G) Tumorigenicity assay: MSP-RAS cells suspended in PBS containing SFRP1 (1 μg/ml), BMP4 (0.5 μg/ml), and a combination of both (S+B) were implanted subcutaneously in mice at indicated cell numbers. In addition, 20 μl of PBS or PBS with proteins at indicated doses was injected peri-tumorally at 1, 2, 3 and 7 days after implanting the MSP-RAS cells.
Mammosphere and tumorsphere assay. Assays were performed as previously described with modifications (Dontu et al., 2003): 1000 cells/well were seeded in 96-well ultra-low adhesion plates (Corning) in MEGM medium containing 1.3% methylcellulose (Stem Cell Technologies) supplemented with 20 ng/ml EGF, 10 ng/ml bFGF (both Sigma) and B27 (Gibco). Primary spheres were dissociated by trypsinization and replated for secondary sphere formation after a period of 5-7 days.

HMLE-iEMT-a cells = assay: Boyden chamber migration assay, iEMT-cells; format: cell-based, human; details: SFRP1 1 μg/ml/d, BMP4 0.5 μg/ml/d; extent comparable to HTwist and MSP cells
Procedure: FIGS. 5A-5H. Concomitant stimulation of Wnt and TGF-beta pathways allows HMLE^24+ cells to enter into a mesenchymal and SC-like state. (FIG. 5A) RT-PCR: N-Cadherin, Zeb1 and Zeb2, L32 was loading control, n=3. Prior RNA isolation, HMLE^24+-shGFP or -shSFRP1 (stable knockdown of SFRP1, FIG. 12A) cells were treated for 3 days with daily doses of indicated factors: anti-DKK1 antibody (10 μg/ml), anti-E-Cadherin antibody (1 μg/ml), TGF-beta 1 (5 ng/ml), Wnt5a (250 ng/ml), (FIG. 5B) Brightfield microscopy: images of control, TGF-beta- and iEMT-cocktail treated HMLE^24+ cells after 14 days of treatment as indicated (see also FIG. 12D). (FIG. 5C) RT-PCR: Zeb1, Zeb2, E-Cadherin and N-Cadherin, L32 was loading control, n=3. After 14 day treatment, cells were expanded in absence of further stimulation for 4 passages. Shown are PBS-treated control HMLE^24+-shGFP and HMLE^24+-shSFRP1 cells, two HMLE^24+-shGFP cultures treated with TGF-beta 1 (TGF-β-a and -b), two HMLE^24+-shSFRP1 cultures treated with the iEMT-cocktail (iEMT-a and -b). […] (FIG. 5G) Lung metastasis: cells expanded for 8 passages after cessation of treatment as described in (C) were transformed with RAS; 1.0×10^5 cells were injected into the mammary fat pads of mice; GFP-labeled metastases on the surface of the lungs were quantified; *control vs. all other groups, p<0.05, n=5 mice/group. […]

Molecule | reduction of primary tumorsphere formation (MSP-RAS cells) | reduction of secondary tumorsphere formation (MSP-RAS cells) | effect on migration of iEMT-cells (HMLE-iEMT-a cells)
B1 | 40% | 40% | inhibited
B2 | 40% | 40% | inhibited

— US9308238B2, “Compositions and methods for modulating EMT and uses thereof” (Whitehead Institute for Biomedical Research, priority 2010, dated 2016)
